Assay results: article PMC12174366 (Nature Communications, 2025)

Target: the molecule itself
Assay: cryo-EM structure

B1: full length human TRPML1 with the V432A/A433G mutations (natural protein, UniProt Q9GZU1 1-580, looked up)
chain: MTAPAGPRGSETERLLTPNPGYGTQAGPSPAPPTPPEEEDLRRRLKYFFMSPCDKFRAKGRKPCKLMLQVVKILVVTVQLILFGLSNQLAVTFREENTIAFRHLFLLGYSDGADDTFAAYTREQLYQAIFHAVDQYLALPDVSLGRYAYVRGGGDPWTNGSGLALCQRYYHRGHVDPANDTFDIDPMVVTDCIQVDPPERPPPPPSDDLTLLESSSSYKNLTLKFHKLVNVTIHFRLKTINLQSLINNEIPDCYTFSVLITFDNKAHSGRIPISLETQAHIQECKHPSVFQHGDNSFRLLFDVVVILTCSLSFLLCARSLLRGFLLQNEFVGFMWRQRGRVISLWERLEFVNGWYILLVTSDVLTISGTIMKIGIEAKNLASYDVCSILLGTSTLLVWVGVIRYLTFFHNYNILIATLRVALPSVMRFCCCAGVIYLGYCFCGWIVLGPYHVKFRSLSMVSECLFSLINGDDMFVTFAAMQAQQGRSSLVWLFSQLYLYSFISLFIYMVLSLFIALITGAYDTIKHPGGAGAEESELQAYIAQCQDSPTSGKFRRGSGSACSLLCCCGRDPSEEHSLLVN
binding result: binds
